Laboratory results taken from PMC6582324 (Nucleic Acids Research, 2019).

T1: SigI1C, C-terminal domain of σI factor SigI1 (C. thermocellum ATCC 27405, UniProt A3DBH0 141-249)
T1 sequence: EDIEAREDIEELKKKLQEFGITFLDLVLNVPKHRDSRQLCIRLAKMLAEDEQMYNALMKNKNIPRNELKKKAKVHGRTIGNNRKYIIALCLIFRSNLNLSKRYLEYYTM

T2: SigI1C K209E/R217E (Clostridium thermocellum ATCC 27405, UniProt A3DBH0 141-249, K209E;R217E)
T2 sequence: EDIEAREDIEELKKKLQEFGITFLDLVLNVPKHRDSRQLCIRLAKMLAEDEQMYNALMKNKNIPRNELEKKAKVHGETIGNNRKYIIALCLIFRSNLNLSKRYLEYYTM

T3: SigI1C (Clostridium thermocellum ATCC 27405, UniProt A3DBH0 141-249)
T3 sequence: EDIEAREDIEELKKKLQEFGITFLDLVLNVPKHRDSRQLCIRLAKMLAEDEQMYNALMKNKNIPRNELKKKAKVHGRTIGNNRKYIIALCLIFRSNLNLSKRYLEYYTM


Tests used:
[1] = target: T1, SigI1C, C-terminal domain of σI factor …; experiment: SPR
SigI1C K209E/R217E = target: T2, SigI1C K209E/R217E; experiment: EMSA
SigI1C = target: T3, SigI1C; experiment: EMSA

Binder | Kd [1] [nM] | binding result (SigI1C K209E/R217E) | binding result (SigI1C)
RsgI1N, N-terminal cytoplasmic inhibitory domain of anti-σI factor RsgI1, wild type (domain or fragment, C. thermocellum ATCC 27405) MNRLGIIYEIQGMKAVVLTSEGEFLIIRRRKDMKVGQQVSFENEDIYNVRGK | 0.011 |  | 
RsgI1N Y8L-E9K (domain or fragment, C. thermocellum ATCC 27405) MNRLGIILKIQGMKAVVLTSEGEFLIIRRRKDMKVGQQVSFENEDIYNVRGK | 0.16 |  | 
RsgI1N E23K (domain or fragment, C. thermocellum ATCC 27405) MNRLGIIYEIQGMKAVVLTSEGKFLIIRRRKDMKVGQQVSFENEDIYNVRGK | 0.36 |  | 
RsgI1N Y8L-V35R (domain or fragment, C. thermocellum ATCC 27405) MNRLGIILEIQGMKAVVLTSEGEFLIIRRRKDMKRGQQVSFENEDIYNVRGK | 0.04 |  | 
RsgI1N V35I (domain or fragment, C. thermocellum ATCC 27405) MNRLGIIYEIQGMKAVVLTSEGEFLIIRRRKDMKIGQQVSFENEDIYNVRGK | 0.023 |  | 
RsgI1N E9K-E23K (domain or fragment, C. thermocellum ATCC 27405) MNRLGIIYKIQGMKAVVLTSEGKFLIIRRRKDMKVGQQVSFENEDIYNVRGK | 6.4 |  | 
RsgI1N E9K-E21K (domain or fragment, C. thermocellum ATCC 27405) MNRLGIIYKIQGMKAVVLTSKGEFLIIRRRKDMKVGQQVSFENEDIYNVRGK | 0.02 |  | 
RsgI1N E9K (domain or fragment, C. thermocellum ATCC 27405) MNRLGIIYKIQGMKAVVLTSEGEFLIIRRRKDMKVGQQVSFENEDIYNVRGK | 0.097 |  | 
RsgI1N Y8I (domain or fragment, C. thermocellum ATCC 27405) MNRLGIIIEIQGMKAVVLTSEGEFLIIRRRKDMKVGQQVSFENEDIYNVRGK | 0.45 |  | 
RsgI1N Y8L (domain or fragment, C. thermocellum ATCC 27405) MNRLGIILEIQGMKAVVLTSEGEFLIIRRRKDMKVGQQVSFENEDIYNVRGK | 0.084 |  | 
RsgI1N L18F (domain or fragment, C. thermocellum ATCC 27405) MNRLGIIYEIQGMKAVVFTSEGEFLIIRRRKDMKVGQQVSFENEDIYNVRGK | 0.0031 |  | 
RsgI1N V16K (domain or fragment, C. thermocellum ATCC 27405) MNRLGIIYEIQGMKAKVLTSEGEFLIIRRRKDMKVGQQVSFENEDIYNVRGK | 2.4 |  | 
RsgI1N Y8L-E9K-V35R (domain or fragment, C. thermocellum ATCC 27405) MNRLGIILKIQGMKAVVLTSEGEFLIIRRRKDMKRGQQVSFENEDIYNVRGK | 9.3 |  | 
RsgI1N E9G (domain or fragment, C. thermocellum ATCC 27405) MNRLGIIYGIQGMKAVVLTSEGEFLIIRRRKDMKVGQQVSFENEDIYNVRGK | 0.071 |  | 
RsgI1N V16I (domain or fragment, C. thermocellum ATCC 27405) MNRLGIIYEIQGMKAIVLTSEGEFLIIRRRKDMKVGQQVSFENEDIYNVRGK | 0.36 |  | 
RsgI1N L18I (domain or fragment, C. thermocellum ATCC 27405) MNRLGIIYEIQGMKAVVITSEGEFLIIRRRKDMKVGQQVSFENEDIYNVRGK | 0.67 |  | 
RsgI1N F24I (domain or fragment, C. thermocellum ATCC 27405) MNRLGIIYEIQGMKAVVLTSEGEILIIRRRKDMKVGQQVSFENEDIYNVRGK | 0.19 |  | 
RsgI1N V35K (domain or fragment, C. thermocellum ATCC 27405) MNRLGIIYEIQGMKAVVLTSEGEFLIIRRRKDMKKGQQVSFENEDIYNVRGK | 0.0065 |  | 
RsgI1N E21K (domain or fragment, C. thermocellum ATCC 27405) MNRLGIIYEIQGMKAVVLTSKGEFLIIRRRKDMKVGQQVSFENEDIYNVRGK | 0.016 |  | 
PSigI1 -35 region (dsDNA) DNA 1: ATCGATAATATACACAAAAA DNA 2: TTTTTGTGTATATTATCGAT |  | no binding | binds
